According to the DeepSol protein solubility set:

Test: soluble on expression in E. coli; label from the status in PepcDB or PDB records

| Sequence | soluble on expression in E. coli |
| --- | --- |
| MKKLTFEQLRSVQMSILDRVHLFCERHDLEYSLAGGTLLGAIRHKGYIPWDDDIDIMMPREDYEYLLQNFAKEYPDFTFFNLDTKHNPYPFLFSKLSLNDSVISNGRIKGVGINIDIFPIDSLGKEKGAAKLRFSLMKAINFFARIQRSRHDRANPIVNIAFRLFQKCLKLLPKKWFLSAIKGLCSTCSVNDDGYAVSIGSSYLAKEFTESSLYHDYTSCPFEDRQYKCIARYDDYLSMIYGDYMQLPKEQDRENHDNVGFIKEHLLPMLEHHHHHH | not soluble |
| MKKLTIGLIGNPNSGKTTLFNQLTGSRQRVGNWAGVTVERKEGQFSTTDHQVTLVDLPGTYSLTTISSQTSLDEQIACHYILSGDADLLINVVDASNLERNLYLTLQLLELGIPCIVALNMLDIAEKQNIRIEIDALSARLGCPVIPLVSTRGRGIEALKLAIDRYKANENVELVHYAQPLLNEADSLAKVMPSDIPLKQRRWLGLQMLEGDIYSRAYAGEASQHLDAALARLRNEMDDPALHIADARYQCIAAICDVVSNTLTAEPSRFTTAV | soluble |
| MKKRGLENHPQNRKKIFERFPRLTKLSEKNLFQICKTTLLNERKMKSIQNTIDELRKLSAGKSSEEVQRLKEMQKHSKMFGEIFGVYGATVGKPKPKEKEVKVPTKEMTFEEKRKLLETTFPNKVTPGQRAKARETLNFIANNPEIYAIASPQDPSSKAKTDPVSRPQLNIISSFSWPITSGSDWSPHGSEFNDLTAPRVGKLTPVPQWSDMKKSSLKLGTEDNFSKMSYDPAYSNTTQSQSVTTLYNETSTPYYDDSDLGTPLHTCVQ | not soluble |
| MKKRLSILIAGLASLSVNAATEPWASPEAEVLSRAQIQQVQGKQTYTYVRCWYRPAATHDDPYTTWEWAKNADGSYYTIQGYWWSSIRQKNMFYTTVQPETLLERCEETLGVNHDFADITYFAADHRFSYNHTIWSNDPEVQSNRISKVIAFGDSLSDTGNIFNASQWRFPNPDSWFLGHFSNGFVWTEYLAQGLNVPLYNWAVGGAAGRNQYVALTGVYEQVSSYLSYMRLAKNYQPENSLFTLEFGLNDFMNYNRSLADVKADYSSALIRLIDAGAKNLVLMTLPDATRAPQFQYATQEQIDTVRSKIIGMNAFIREQARYYQMQGIRIVLFDAYTLFDSITTQPEQHGFANANSPCLDIRRNSAADYLLSHSLSAECAKQGSDRFVFWEVTHPTTAIHHYLAEQILATEMAQFPL | not soluble |
| MKKRYSWEELARAMGIEPQRLENKEARELKKFVDEMTWPTHCNYCQGLDLTNPNPVHHPSYELTPACNHDCIFCYSNVAVKLGKAPKPGYYGWDNPKVITISQYGEPLLSPRIVEVNKMLRKRFPEARLDLQTNGSLLTRELWEKLDFDLVMISLNAADREKHRRIANADTFEQVVNALKIVGEDKSVRSVVRTVFMPGINDEDIPKIAELAASLGIDEMHLQPLTIHELNVERLKKAGLDFERAESIRELLKAAMEAKKYIDVRISGCILVQLKQMDPITLYSVRRVAREVVPLVKRSKLDILEHHHHHH | not soluble |
| MKKSYLVTPLVAGALILPAALPATAAQASAPAPAAVSTVNKTALTTDQIKAERSALNSRINMLQETQKAIPGSQYADQIEDLIKTALDLSGAIDTIAHGGVPAYDPATIVPRIHLAIDAADAIKTGNTTLQHKVKKAHVELGLEIAKASIVAINPASSVAQVQDEIKALKARIDKVSAYPDLSKDDTATIAYKQTLRKTIHEVRVGRNKNIVGKKDQAVVDTLNKEISKADKVRANAKSTVAQVDTAVDQLRAAYQTALNAPDKAKKLEHHHHHH | not soluble |
| MKKTIYKCVLPLLICILLTGCWDRTEINDIAFVVSSAIDKKKDQYRVAMQIPLVGQLGGQTGGGGGTAGSKTWYVDSASGTTIREANNKLQTSLSRTINTSHRRTVIIGEDMARDGVAPVFDILTRNPQNRLTALILVSRGEARDILNTDVQLEQFPAEMIRELAIIATSRPVFLSRFMSDLVEIGSDPYAPVISASKTKPGGKGKSNLKIDGLAIFKKDRLMDIFKDEHMTAALMLLNQARQPEFIVDLPNQMGQASIQLQKSNASFHAAEKNGKLSMTIEIRAKGIIMENQSTYETRENDQYYIIQKALNRTIKKDVISTVHRLQKLKADPAGFQDRTIRSTATTKNLLKKEWEEVYKDMEVHVVPIVTIEQGGVLYKTISH | not soluble |
| MKKTLILGATPETNRYAYLAAERLKSHGHEFIPVGRKKGEVLGKTIINERPVIEGVDTVTLYINPQNQLSEYNYILSLKPKRVIFNPGTENEELEEILSENGIEPVIGCTLVMLSAGT | not soluble |
| MKKTLYIFQNGELRRKDHSLYFETEERKRYIPVENTNDIYIFGEVDVSKRFLEFAAQKEIIVHYFNHYGYYVGSFYPREHLNSGHVVLKQAEHYIDPAKRLELACLFVQGSIRQMERVLKYYRSRLSDPEELEKALQLIEREEGKLSQANTVEQLMAVEGHIREAYYASFDAILRHPDFVFEKRTKRPPHNRLNALISFGNSIVYTMCLSEIYKTYLDPRIGFLHSTNFRRFSLNLDIAEIFKPIIVDRLIFTLVNKRMLSSKHFEKLTNGIVLNEEGRKLFVSELEKKMQTTVQHRHLGKSVSYRRLIRLELYKVQKHILGEKMYEPYAARW | not soluble |
| MKKTPLYEAHLRLGARMVDFAGYLLPLQYTSIVEEHLAVRRAVGVFDVSHMGEFLVRGKEALAFLQWATANDAGKLKVGRAQYSMLPNERGGVVDDIYLYRLGEEEYLMVVNAANIAKDLAHLQALAKGFRVELEDASERTALLALQGPKAASLLQGLTDLDLSQKRKNDVFPARVAGRPARLARTGYTGEDGFELFLAPEDAEPVFLALVEAGAKPAGLGARDSLRLEAGFPLYGHELTEETNPLCTPWAWVVKKEKAFLGKEAMLAQACRERLVGLVLEGGIPREGYRVLSGGRPVGRVTSGGYSPLLQRGIALAYVEEGAEGPFQVEVRGRAVPAALSPLPFVPLK | soluble |
| MKKVIGIGEYAVMKNPGVIVTLGLGSCVAVCMRDPVAKVGAMAHVMLPDSGGKTDKPGKYADTAVKTLVEELKKMGAKVERLEAKIAGGASMFESKGMNIGARNVEAVKKHLKDFGIKLLAEDTGGNRARSVEYNIETGKLLVRKVGGGEQLEIKEI | soluble |
| MKKVLIVFGTRPEAIKMAPLVQQLCQDNRFVAKVCVTGQHREMLDQVLELFSITPDFDLNIMEPGQTLNGVTSKILLGMQQVLSSEQPDVVLVHGDTATTFAASLAAYYQQIPVGHVEAGLRTGNIYSPWPEEGNRKLTAALTQYHFAPTDTSRANLLQENYNAENIFVTGNTVIDALLAVREKIHTDMDLQATLESQFPMLDASKKLILVTGHRRESFGGGFERICQALITTAEQHPECQILYPVHLNPNVREPVNKLLKGVSNIVLIEPQQYLPFVYLMDRAHIILTDSGGIQEEAPSLGKPVLVMRETTERPEAVAAGTVKLVGTNQQQICDALSLLLTDPQAYQAMSQAHNPYGDGKACQRIADILAK | not soluble |
| MKKVSSQILHQLRSQRGQSGMWCTNLTHSSTTHHQHPRQTSSHLLQRLESAPCLLKLSTTLLCLEIQQSMSLHPKEAILTTPDAVHREKMLTRSRKGDQTHEDQTDGTRKARNNIGPPNLFWITAKFQEQSTKMPNCWCLQLVNCAQSSILIGLWML | not soluble |
| MKKWEKQTMKIAALGAMALTLAGCATAKSSSSQGNNPGKTIKIGVNMELSGSAAGYGEQQKQGIQLAVKKINKSGGIKVGGTKKKIQLVIRDNKTSNTTAASVAAQLVNNDKVVAVVGPATTSAGTAAIPNMTKAAVPSVSPSATDPDYTLQKSGKVQKYIFRACYQNNFQGATAATFVTKNLKAKRVAILTDNSSDYGTGLTKAFKKQYRGTVVSSQTFQEGDKDFNAILTALKHKKIDAIYAPGYYSEIGLIVKQARQAGIKAPIVGSDGMADAKLAQIAGKSNATNVYYTTPFSTKASATNKVASKFMSAYKAKYGSTAPTFSALAYDSVYMIKAAIEKEGSANSVKIADGLAKLKNFKGVTGTMTIDKQHNPEKTISIEQLTNGVVSKVYNVK | soluble |
| MKKWLLAAGLGLAMVTSAQAADKIAIVNMGNLFQQVAQKTGVSNTLENEFKGRAAELQKMETDLQSKMQRLQSMKAGSDRTKLEKDVMSQRQTFAQKAQAFEKDRARRSNEERNKLVTRIQTAVKKVANDQSIDLVVDANTVAYNSSDVKDITADVLKQVK | not soluble |
